Experimental data published in a protein production outcome set (Wang et al. 2014).

Test: label from the status in PepcDB records

Sequence | protein production
MAHGPTRQKITLTTEVAAEPAEVWARIGDFQDMSWHPAVHSSTGENGNEIDATRVLSLGAADGPTISEILYKYSDEKMSYSYRITDVLVEVLPVTNYSSHLTVKARDGGGSVIEWRGAFYRGYPNNDPPEDLEHHHHHH | failed
MAHHHHHHMRKIYIAGPAVFNPDMGASYYNKVRELLKKENVMPLIPTDNEATGALDIRQKNIQMIKDCDAVIADLSPFRGHEPDCGTAFEVGYAAALNKMVLTFTSDRRNMREKYGSEVDKDNLRVEGFGLPFNLMLYDGVEVFDSFESAFKYFLANFPSK | not failed
MAHHHHHHSLDAAAATLPRKSGSVDRLVRLAEADMAGVNRLITDRMQSDVAIIPALAEHLIAAGGKRLRPLMTVAAARLAGADNDHFQKLAAAVEFIHTATLLHDDVVDGSQLRRGKVAAHLIWGGAQSVLVGDFLFARAFELMVETNSMKALEILARASRVIAEGEVLQLMRSHDLNLSQAVYLEIIQAKTAELFAAASEAGAVSAGVDVAKSEALRDYGLNLGLAFQLADDALDYGGATETLGKNAGDDFREGKATLPLLLAIARSGPREAEFWERAIGRREQTEADFRRARELIIGSGALDATLDLAADYADKAKAALAMFPANDWREALEELADFAVSRRA | not failed
MAHKKGLGSTRNGRDSQAKRLGVKRYEGQVVRAGNILVRQRGTRFKPGKNVGMGRDFTLFALVDGVVEFQDRGRLGRYVHVRPLA | not failed
MAIAFHTFLLQLLLFFFASFAEANDSRKTYLVQMKVGGHRYGSSSGHQELLGEVLDDDSYKESFTGFSASLTPRERQKLMSKTTTVSSRRREVLEVSRSRNLKLQTTRSWDFMNLTLKAERNPENESDLVVAVIDSGIWPYSELFGSDSPPPPGWENKCENITCNNKIVGARSYYPKKEKYKWVEEKSVIDVTGHGTHVASIVAGRKVEKAGYFGLAEGTMRGGVPNAKIAVYKTCWRVIRKNGREDSVCREDNILKAIDDAIADKVDIISYSQGFQFTPLQKDKVSWAFLRALKNGILTSAAAGNYANNGKFYYTVANGAPWVMTVAASLKDRIFETKLELEGEDKPIIVYDTINTFETQDSFYPLLNEKAPPESTRKRELIAERNGYSILSNYDEKDKGKDVFFEFAQINLLDEAIKEREKGAIVLGGKSYDFNESIKLQFPIASIFLDEQKKGKLWDYYKKDQSKERLAKIHKTEEIPREEGWVPTVAHLSSRGPNCDSFLANILKNSHMNNCFQPDIAAPGLDIIAGWPENVKLSSDRPANDYRHLRFNIMSGTSMACPHATGLALYLKSFKRWSPSAIKSALMTTSSEMTDDDNEFAYGSGHLNATKVRDPGLVYETHYQDYIDYLCKLGYNTEKLRSHVGSDKIDCSKTEIDHDADLNYPTMTARVPLPLDTPFKKVFHRTVTNVNDGEFTYLREINYRGDKDFDEIIVDPPQLKFSELGETKTFTVTVTGISKRNWNKNRAFMTRNTWLTWTEKDGSRQVRSPIVIYSIKGPKACM | failed
MAIATARAGGKETGTEQMYILQVTNSRSTMSKMSNVKEVNASTAFSMIKKGALLVDVRETREINRKAFGVSDYLSVPMSRFQSSLHEIPAERKVILACHSGNRSSIASRILVNSGHRKVHNLQHGIISWEREGLPVRKKESPSPLTMLFQMFRKEA | failed
MAIGRLGYLVRGAWAGGVMLLAAGSAWAAPNWPLAPYSYYAQQQSLSDVLREFAAGFSLALQQGKGVQGVVNGRFNARTPTEFIERLSGIYGFNWFVHAGTLYVSRTSDVVTRAVDAAGASPSALRQALLQLGILDERFGWGELPAQGVAMVSGPPAYVALVEQAVAALPKGAGNQQVAVFRLKHASVSDRVIRYRDQQVVTPGMATMLRQLILGAGPGNDAALAAVAAPLRENPPVFGDAAADGNAPLAGAAQAAGRRLSEPSVQADTRLNALIVQDIPERMPIYRALIEQLDVPSTLIEIEAMIVDVNTDLVNELGVTWGAQIGTTSLGYGDLGLRPGNGLPVDGAAADLAPGTLGISVSTRLAARLRALESDGQANILSQPSILTADNLGAMIDLSDTFYIRTLGERVATVTPVTVGTSLRVTPRYIAAKGGRQVELAIDIEDGRVLQEYPIDGLPRVRKSSISTLAVVGDEQTLLIGGYNNRRDEEQVEKVPLLGDIPGLGFLFSSKSRAVQRRERLFLIRPRVVAIEGKPVFSPVAGTSQVFMSTGWGGHGSSLSIAPGEGGHTQVRHDARAGRPVRLVPDSLHVEYGEAGEASP | failed
MAILHGSWILNEQESCLFIWGETWRSPQVDFNFAEISLNPLALSALELSEWLQSQHQAIAKLLPQQLEKRTSKAASSVKINLLTHSQIIALPTEISQPRKKETILISPVHSAALASESDSEVYLQTWRVEGFCLPPSAAIKLLTSLPLNITSGENAFLGGDLRFWSQIARWSLDLISRSKFLPIIQRQPNNSVSAKWQVLLDSAVDGTRLEKFAAKMPLVCRTYQEIGSGESPIYIDFPSQPQDLILGFLNSAIDTQLREMVGNQPVVETRLMASLPSAVRQWLQALIAASNSIDADAVGLERLEAALKAWTMPLQYQLASKNQFRTCFELRSPEPDETEWTLAYFLQAADDPEFLVDAATIWQNPVEQLIYQQRTIEEPQETFLRGLGLASRLYPVIAPTLDTESPQFCHLKPMQAYEFIKAVAWRFEDSGLGVILPPSLANREGWANRLGLKISAETPKKKPGRLGLQSLLNFQWHLAIGGQTISKAEFDRLVALKSPLVEINGEWVELRPQDIKTAEAFFTARKDQMALSLEDALRLSSGDTQVIEKLPVVSFEASGALQELIGALTNNQAVAPLPTPKNFQGQLRPYQERGAAWLAFLERWGLGACLADDMGLGKTIQFIAFLLHLKEQDVLEKPTLLVCPTSVLGNWEREVRKFAPTLKVLQYHGDKRPKGKAFQEAVKKHDLVITSYSLIHRDIKSLQGIPWQIIVLDEAQNVKNAEAKQSQAVRQLETTFRIALTGTPVENRLQELWSILDFLNPGYLGNKQFFQRRFAMPIEKYGDAASLNQLRALVQPFILRRLKTDRDIIQDLPDKQEMTVFCGLTGEQAALYQKAVETSLAEIESAEGLQRRGMILALLIKLKQICNHPAQYLKINTLEQHSSGKLQRLEEMLEEVLAESNTYGVAGAGRALIFTQFAEWGKLLKPHLEKQLGREIFFLYGGTSKKQREEMIDRFQHDPQGPPIMILSLKAGGVGLNLTRANHVFHFDRWWNPAVENQATDRVFRIGQTRNVQVHKFVCNGTLEEKIHDMIESKKQLAEQVVGAGEEWLTELDTDQLRNLLILDRSTVIDEEAD | failed
MAILVTGSTGTIGSQVLAHLQGHNVEVRALTRSPETAQFPAGVTAVRGDLADPDSVRAALRGVSTLFLLAPNVADELTQAMLTLTVAREAGVKGIVYLSVFGGDGYADVPHFAGKYTVERMIEALDLPATILRPAYFIQNDLRQKDGLLKTGVYGSPIGKKGVSMVDIRDIGEAAAIELLRREQAATPLGRETYALVGPDSLTGEGIATIWREALGRAIRHGGDDLVVMEQRTKTMLPAWHALDLRLMFSRYQTEGAVATADDIERLTKLLGHAPRSYTAFARDAAAQWTKG | failed
MAIQFIVSNKYTAEVSKQLNDSQNWVLDSGIYYEDHNNHIVSSPINSATKPQNTREEWLWIPPHCQVVVCSTSSLKSFLGCKASEDLDRVFGDHPLWLDQLRPLSNLLENSLIDLLSRAPFEQSSKRNIQSMERGNPVMNWNVMQVEEEDTRGEQRVAASSSLSSSFDWNTFLRDRCGLSEEDVAYCFRKLSRFGRVSLSRLNEDSLLRMGINDPTVIAKLLIGITEEFS | failed
MAIQKGDFIKLNYTGRFEDGRIFDTTDEELAKKEEIFNPRGLYGGDVVIVGAGHTIEGLDEDLEGKEAGYSSTVTIPPEKAFGLSNSKLVETVSITKFQDRNVHPGLPVELEGKRGVVSRVIGRKVTVDFNSPLAGKTVSYEYTIEKLLEDDVEMIQGLLALYTGMRDMEVEITDGVAKIYVPTGLTFNQRWLMAKNRVVSELFKYAGLKEVQLIEKLTAEAEAPVPAEPEVEAEAEAEAEVEAEVKEETSESHE | failed
MAISDANRGGAPGAAPGPDPAHILHELAGLMAISPGRDFLDELVNRAVQRLGVDYAWVVLHGAKGEHARTVLSANCRMRWNGAESYLATGQSALAGVLSHATQYVCARDLERHVPGDLALRRLGAQACVAHALRDESGLQRGHVAFVFSEPLADPAIYVSALSACAAFTERAVLALDAERKARQEALQLASRYQALFEKAPVLINAFDARGKCILWNLECERKFGWSMEEVNNHPEPLALFYPDPQTRARVVASVSQAPGRAFEEWHPVTRAGKVLSTLWSNIVLESGTIVNIGLDITERKRAELALTRLATIDSLTDCWNRAEILKILRQEITRLRQHPDQPLAVVMLDLDHFKQLNDLHGHLVGDAALRYFSDQLRSNLRGTDFVGRIGGEEFLALLPGCDGDAALAMADRLRAALRNDPFTTEGQAAPLSVSVGIAFATPEDTAVSDVMRRADTALYEAKRRGRDRAVVYFG | failed
MAKAQTVTILSPVNGDVIALNKVKDPVFSAGMMGLGFGVQPSSGEVVAPVSGQVTMVAETKHAIGFTTPDDHLEVLVHLGIDTVDLKGAPFTVKVAAGDDVQAGDVIATMDLAAIQAANRQTTVILAVTNTSDKLESLDVVTGAKAAGDVTATGRLNANTFNAKRQNRLPKAGKYDQLAADIVANVGGVENVSSLIHCITRLRFYLKDESKANDDVVRDLKGVIDVAKAGGQYQVVIGPAVTDVYDAIIKQIGPGFSNDSETAKAVAETAAAAQRPTTPWGKVKWGISNLIGVITGSMIPVIGLLAASGILKGILALLTTFNLVSPTAPTYVIINAMGDSVFYFLPIFVGFTAGKKLGADPVIMGIIGGVLTYPAIVTMASGKATSTLLGMGINANFFGLPVHVASYTYSIFPMIAGAWLASKLEPWLKRVIPTVLRMIFVPLFEVVIVSGAILLFLGPIITVLSTGLANIIVWVYNLSPAISGLIIGGFYQVLVIFGLHWAVIPIVANDIATTGHSYLNAIVSATMVAQGGAVFAIALKSKLANIQELAWPATISAFCGVTEPAMYGINLKYGRAFVTASIGAAVGGFLTGLMNVNMWGFTGSLIGFTSFVNPKGLDFSFYGFLIASAATIVVSFALTWMFGFKDEDANAVKVAPKKRHLGATA | failed
MAKEIKFSDSARNLLFEGVRQLHDAVKVTMGPRGRNVLIQKSYGAPSITKDGVSVAKEIELSCPVANMGAQLVKEVASKTADAAGDGTTTATVLAYSIFKEGLRNITAGANPIEVKRGMDKAAEAIINELKKASKKVGGKEEITQVATISANSDHNIGKLIADAMEKVGKDGVITVEEAKGIEDELDVVEGMQFDRGYLSPYFVTNAEKMTAQLDNAYILLTDKKISSMKDILPLLEKTMKEGKPLLIIAEDIEGEALTTLVVNKLRGVLNIAAVKAPGFGDRRKEMLKDIAILTGGQVISEELGLSLENAEVEFLGKAGRIVIDKDNTTIVDGKGHSHDVKDRVAQIKTQIASTTSDYDKEKLQERLAKLSGGVAVIKVGAASEVEMKEKKDRVDDALSATKAAVEEGIVIGGGAALIRAAQKVHLNLHDDEKVGYEIIMRAIKAPLAQIAINAGYDGGVVVNEVEKHEGHFGFNASNGKYVDMFKEGIIDPLKVERIALQNAVSVSSLLLTTEATVHEIKEEKAAPAMPDMGGMGGMGGMGGMM | failed
MAKELYVGHMSYEATEDDLRRLFSVAGTVTSVHIITDPETGRSKGCGYVRMLTEEEAKEAIETLDGALLRNRVITVSVARPQKQATRPAPRRGKPGPGGRPGKKRPS | failed
